Laboratory results reported in the supplement of paper PMC10126150.
± gives the standard deviation of the averaged measurements.

Tested on: ATP
Experiment: switch fluorescence ratio, 500 uM ATP over buffer (Cy3 cluster intensity, sum of 5 cycles each) (fold (ratio)); higher = stronger signal-on switching upon ATP binding; sequences stand for … in TCGTCGGCAGCGTCAGATGTGTATAAGAGACAGTTTTTTTTTTTTTTTTTTTTTTTTT…TC
Conditions: aptamer strand: ATP DNA aptamer (quencher-CACCTGGGGGAGTATTGCGGAGGAAGG + anchor), 100 nM annealed; ATP concentration: 500 uM
In short: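 Clusters carrying Cy3-labelled switching strands on a modified Illumina MiSeq flow-cell were annealed to 100 nM quencher-labelled ATP aptamer and imaged in selection buffer. They were imaged again after 15 min with 500 uM ATP at 22 °C, over five buffer/ATP cycles with NaOH stripping and re-annealing in between. For each cluster, the fluorescence ratio is the summed Cy3 intensity of the target cycles divided by that of the buffer cycles, averaged per switch-domain sequence. Clusters outside 100-1000 RFU were left out.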
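Note: ATP exposure 15 min at 22 °C before imaging.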

Sequence	switch fluorescence ratio
GCGGAGTTGT	1.02 ± 0.035
TAGGGCGTTC	1.02 ± 0.079
GGGAGTTCTA	0.991 ± 0.023
TTGAAGAAGT	0.9724 ± 0.0095
GGGGCAGGTT	0.977 ± 0.038
AATAATTACA	0.9987 ± 0.0094
AGTGCAAAAG	1.06 ± 0.029
TGACATAATT	1.01 ± 0.046
GGGGACTTTC	1.03 ± 0.017
CGGGGATACT	1.38 ± 0.24
TTTGGTGAGG	1.01 ± 0.02
GGAAGGAGTG	0.987 ± 0.036
GCGGTTGAGG	1.001 ± 0.009
CGTTATTGCT	1.016 ± 0.0039
ATAGCAGATG	0.991 ± 0.046
GAAAGAGAGG	1.003 ± 0.0076
AAGGGTACCT	1.018 ± 0.0077
TTATGCATGA	1 ± 0.047
TTCTATTATA	0.977 ± 0.018
GCTTCTAGGT	0.9976 ± 0.0043
CTCAGTCGGG	0.991 ± 0.01
AGGCACCGGT	1.04 ± 0.0041
ATTGCGTTAT	1.03 ± 0.018

Sequence	switch fluorescence ratio
TTTTCAAGGG	0.967 ± 0.015
TTTAAGATTA	0.9843 ± 0.0063
GTCTCTTAGG	1.01 ± 0.014
AGAGTGTGGC	1.07 ± 0.039
GGACCGGACG	1.106 ± 0.0093
TTATTGCAGC	1.07 ± 0.063
CGGGCTATTC	1.22 ± 0.034
TACTCGGTTT	0.98 ± 0.014
ACATGGGGTC	0.977 ± 0.012
GACAGCGCTA	1.01 ± 0.042
TATCAGAGGG	1.02 ± 0.023
TTTTCTCCTC	1.31 ± 0.35
AGGTGCGGGG	1.01 ± 0.042
TTTTGTGGAT	1.05 ± 0.053
TCGGCCGGAA	1.08 ± 0.025
TTCTTTGAGA	1.006 ± 0.0062
ACGTACGGGT	1.46 ± 0.12
CGATAGGTAG	0.994 ± 0.018
GTTTGGGGCC	1.057 ± 0.01
TTAAGGTTAA	1 ± 0.029
TTTTATAGGT	0.998 ± 0.017
TTTAAGCGGT	0.996 ± 0.024
GTGTTTGTTG	0.989 ± 0.029

Sequence	switch fluorescence ratio
AGATGGTTGC	0.958 ± 0.021
TTTTGGACGG	1.01 ± 0.032
GGGTATGCCC	0.9949 ± 0.0027
TATAAGAGTT	1.02 ± 0.035
ATGTGGTAGC	0.9523 ± 0.004
TAGATTTATT	0.995 ± 0.028
TACCATGCGG	1.023 ± 0.01
GTGGAAAGAT	1.01 ± 0.018
TGTGGTGTGT	1 ± 0.03
ACTTAATAAC	1.03 ± 0.013
GAGTCCATTA	0.981 ± 0.015
CGGTTTCGTG	0.995 ± 0.018
TCCTGGCAAA	1.59 ± 0.6
TAATTTTTAG	1.01 ± 0.025
GTGTTTTGAA	1.01 ± 0.022
AGGTCAGGTG	3.06 ± 0.33
AAAAATCGT	1.01 ± 0.014
TGAATCGGGG	1.027 ± 0.0014
CTCGGATGTC	0.991 ± 0.022
AAAATACGCT	1.16 ± 0.17
AAGGGGGTAT	0.999 ± 0.043
ACGATGGGCA	1.05 ± 0.015
CACTTGGTGG	0.96 ± 0.038

Sequence	switch fluorescence ratio
CTGTGTTGGT	0.992 ± 0.022
GCTAGTTTTT	1 ± 0.022
GCTTTTAGCG	0.989 ± 0.055
ATTAATAGTG	0.967 ± 0.028
ATTTTTGAAT	1.01 ± 0.029
CCTTAGGGGC	1.03 ± 0.026
GGGAATCCGG	1.02 ± 0.013
TCGGGTACTT	1.04 ± 0.055
ATAGGTGCTT	1.131 ± 0.01
AGTTCGATGT	1.01 ± 0.025
CTGGGAATGG	1.12 ± 0.11
AATAGCGGAA	1 ± 0.015
GCGGTAATCG	1.03 ± 0.032
TGAGCCCGGG	0.97 ± 0.013
CAATTTTGCT	0.98 ± 0.019
CGCGCTGACT	1.05 ± 0.017
ACTGGCATTG	1.02 ± 0.044
TGTTGATGGT	0.976 ± 0.031
TGCTTACAAA	1.01 ± 0.027
TCGTCGGTGG	1 ± 0.011
TGACCGATCA	1 ± 0.021
GTGGTTCTGA	1.03 ± 0.024
TGGTTGAAAT	0.975 ± 0.028

Sequence	switch fluorescence ratio
GGGAGCCGAG	1 ± 0.03
TCTTATTCTG	1.044 ± 0.0063
ATTGGTATGC	1.03 ± 0.011
TGTTTACACT	1.01 ± 0.051
CAAATAATGA	0.9642 ± 0.0036
ATTATCATGT	1 ± 0.074
GAGTGGGAGC	0.997 ± 0.066
TCGATCAACG	0.9909 ± 0.0013
TAAGATTTTC	0.973 ± 0.046
AGAAATTAGT	1.03 ± 0.015
TGGGAGACAA	0.9815 ± 0.001
ATTGGATAGG	1.01 ± 0.012
GGTTTGCGGC	0.994 ± 0.036
TGTGTTTAAA	0.967 ± 0.021
AAGGTAACAA	1.01 ± 0.051
AGTGAGTCTT	0.994 ± 0.032
GGGAAGCGTT	0.997 ± 0.012
TTTTGTGTGG	1.01 ± 0.026
GTTGGGGTAA	0.9927 ± 0.0067
AGAACTTTTT	0.98 ± 0.011
AAAACGGCGT	0.959 ± 0.01
TACGGGGGTC	1.02 ± 0.047
TTAGGGACAA	1.039 ± 0.0064

Sequence	switch fluorescence ratio
GCGGAGGTTT	0.973 ± 0.034
GTGAAGGTCG	0.927 ± 0.022
TTTCAGGGCT	1.22 ± 0.16
AATGTGGGGG	0.996 ± 0.018
TTTGTGTCTG	0.998 ± 0.012
GTGCTTGGGC	0.9955 ± 0.0058
CAGTGTTGGC	1 ± 0.016
ACAGACTGAT	1.1 ± 0.076
GGGGTTTACG	1 ± 0.039
GGGTGACTTA	0.978 ± 0.04
TTTGGCAATT	1.73 ± 0.57
TTGGAAATTG	1.01 ± 0.019
AGGTTTATGT	1.0099 ± 0.00068
CGTTTCGTCT	1.05 ± 0.024
AGTGTTTAAT	0.999 ± 0.032
TTTAACAGGG	1.03 ± 0.069
GAATTTAGGT	0.996 ± 0.028
AGTGGTTGTG	0.973 ± 0.0069
CTCCGGCGCA	4.19 ± 0.76
CAGTCGGGCT	0.974 ± 0.02
GGGGAACGGG	1 ± 0.027
TGGATAATCG	0.996 ± 0.024
TTTTGTTGAT	1.03 ± 0.052

Sequence	switch fluorescence ratio
AAAAAAAAAA	1 ± 0.022
GCCCTCACGT	1.08 ± 0.081
ATATTTATTT	1.015 ± 0.009
AAGGTTGGG	0.989 ± 0.014
CGACCATAGA	1.07 ± 0.045
TACCGTGGGC	1.04 ± 0.036
GCTATAAGCC	1.05 ± 0.039
AGGTGACGG	0.993 ± 0.058
TTTTGGGTGA	1.01 ± 0.024
ATTGTAAGAT	0.994 ± 0.027
ATTATTTTGC	0.9464 ± 0.0026
CTTAAAGTTT	0.983 ± 0.041
CAAAAGATGT	1.01 ± 0.05
CGTCTCTTAG	0.995 ± 0.027
GATGCCGGGG	1.05 ± 0.095
ATGAAGTTTT	1.02 ± 0.028
TTTAGATTTA	1.04 ± 0.042
TCAGTTTAGA	1 ± 0.011
AATATTGAAC	0.99 ± 0.036
